From publication PMC8351736 (Molecular Biology of the Cell, 2021)
Where a chain is given by its changes, count along the chain named. Numbers in names are those of the source. Where two headings read alike, the source gives them in different places. Ends that are not written are not given here. * marks the point of attachment. FITC = O=C1OC2(c3ccc(O)cc3Oc3cc(O)ccc32)c2ccc(NC(=S)*)cc21

T1: His-tagged Aim21 (His-Aim21) (S. cerevisiae, UniProt P40563 1-679)
T1 sequence (looked up): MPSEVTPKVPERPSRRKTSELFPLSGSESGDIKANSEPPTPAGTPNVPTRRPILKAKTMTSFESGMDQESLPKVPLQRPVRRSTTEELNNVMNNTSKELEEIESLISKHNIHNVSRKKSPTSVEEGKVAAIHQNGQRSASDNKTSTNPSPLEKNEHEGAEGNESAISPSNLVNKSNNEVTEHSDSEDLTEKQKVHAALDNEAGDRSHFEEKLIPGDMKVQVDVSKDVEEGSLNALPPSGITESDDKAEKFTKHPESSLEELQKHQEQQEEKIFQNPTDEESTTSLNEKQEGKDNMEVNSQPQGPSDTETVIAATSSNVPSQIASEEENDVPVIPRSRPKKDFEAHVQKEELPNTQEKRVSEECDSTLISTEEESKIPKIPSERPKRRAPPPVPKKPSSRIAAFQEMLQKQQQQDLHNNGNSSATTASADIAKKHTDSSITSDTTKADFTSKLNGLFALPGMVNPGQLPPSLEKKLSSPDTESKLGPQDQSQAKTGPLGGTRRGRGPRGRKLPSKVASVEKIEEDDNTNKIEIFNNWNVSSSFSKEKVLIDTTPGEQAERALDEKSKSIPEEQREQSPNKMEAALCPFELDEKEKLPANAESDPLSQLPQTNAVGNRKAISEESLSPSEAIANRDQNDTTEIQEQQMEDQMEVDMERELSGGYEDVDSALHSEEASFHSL

T2: GST-Aim21^504,507,509E (S. cerevisiae, UniProt P40563 1-679, Aim21^504,507,509E | Aim21^504,507,509E | Aim21^504,507,509E)
T2 sequence (looked up): T1 sequence (looked up) with R504E, R507E, R509E

T3: His-Tda2 K107E (S. cerevisiae, UniProt P40045 2-126, K107E)
T3 sequence: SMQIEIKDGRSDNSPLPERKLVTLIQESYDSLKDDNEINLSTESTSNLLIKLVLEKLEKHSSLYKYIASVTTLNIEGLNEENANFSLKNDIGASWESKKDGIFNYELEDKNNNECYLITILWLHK

T4: His-Tda2 I103Q (S. cerevisiae, UniProt P40045 2-126, I103Q)
T4 sequence: T3 sequence with I102Q, E106K

T5: Aim21^1-600-GST (S. cerevisiae, UniProt P40563 1-600)
T5 sequence (looked up): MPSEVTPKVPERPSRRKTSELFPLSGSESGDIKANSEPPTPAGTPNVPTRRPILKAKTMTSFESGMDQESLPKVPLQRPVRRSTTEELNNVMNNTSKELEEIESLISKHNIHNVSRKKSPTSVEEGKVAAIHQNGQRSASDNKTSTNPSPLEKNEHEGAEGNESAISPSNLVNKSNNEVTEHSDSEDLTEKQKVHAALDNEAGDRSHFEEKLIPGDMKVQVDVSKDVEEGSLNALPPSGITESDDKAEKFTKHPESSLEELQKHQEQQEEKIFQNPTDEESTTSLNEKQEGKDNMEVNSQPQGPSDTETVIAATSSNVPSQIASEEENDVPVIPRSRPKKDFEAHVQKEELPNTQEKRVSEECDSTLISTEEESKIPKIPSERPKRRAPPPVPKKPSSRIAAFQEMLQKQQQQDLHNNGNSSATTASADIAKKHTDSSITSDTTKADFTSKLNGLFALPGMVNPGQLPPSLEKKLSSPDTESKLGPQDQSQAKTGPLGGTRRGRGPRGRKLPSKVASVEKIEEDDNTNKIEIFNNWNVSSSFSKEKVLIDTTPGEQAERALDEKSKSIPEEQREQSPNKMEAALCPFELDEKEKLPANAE

B1: 6-histidine-tagged Tda2 (His-Tda2) (natural protein, S. cerevisiae)
chain: T3 sequence with E106K
B2: FITC-Aim21^CPI+TBR with 25 µM His-Tda2 (reconstituted Tda2-Aim21 peptide complex) (complex, S. cerevisiae)
peptide: KTGPLGGTRRGRGPRGRKLPSKVASVEKIEEDDNTNKIEIFNNWNVS
chain: T3 sequence with E106K
modifications: FITC label (printed FITC-KTGPLGG...)
B3: His-Tda2 D101A (natural protein, S. cerevisiae)
chain: T3 sequence with D100A, E106K
B4: His-Tda2 F86V (natural protein, S. cerevisiae)
chain: T3 sequence with F85V, E106K
B5: 6-histidine-tagged actin capping protein (His-Cap1/2 heterodimer) (complex, S. cerevisiae)
chain 1: MSSSKFEEVINKIINDSPPGELREVYDDLIKITSENSKNTILDAIENYNVQNCIPIEVNGNSVIISKYNKEGAKFFDPVNSVIFSVNHLERKGLDIEPYEFTHAKIEKGQLKELHDKLHEYLLQSFPGDVSFAVYPVPEEISKISIIIVSTKYNPNNFWNGHWRSSYIYDLETRELSGQISTQVHYYEDGNVSFQSGKDINQSNVDDVVCTIRDIETNFENDLDLSFFDLNEKQFKALRRRLPVTRSKINWGSAIGSYRLGKNAAEGK
chain 2: MSDAQFDAALDLLRRLNPTTLQENLNNLIELQPNLAQDLLSSVDVPLSTQKDSADSNREYLCCDYNRDIDSFRSPWSNTYYPELSPKDLQDSPFPSAPLRKLEILANDSFDVYRDLYYEGGISSVYLWDLNEEDFNGHDFAGVVLFKKNQSDHSNWDSIHVFEVTTSPSSPDSFNYRVTTTIILHLDKTKTDQNSHMMLSGNLTRQTEKDIAIDMSRPLDVIFTSHVANLGSLIEDIESQMRNLLETVYFEKTRDIFHQTKNAAIASSAEEANKDAQAEVIRGLQSL

Columns and labels:
[1] = target: the molecule itself; experiment: SEC + other: sucrose density gradient fractionation
[2] = target: T1, His-tagged Aim21 (His-Aim21); experiment: as above
[3] = target: T2, GST-Aim21^504,507,509E; experiment: pull-down
[4] = target: B5; experiment: fluorescence polarisation
[5] = target: T3, His-Tda2 K107E; experiment: pull-down
[6] = target: T4, His-Tda2 I103Q; experiment: pull-down
[7] = target: B4; experiment: pull-down
[8] = target: B4; experiment: fluorescence polarisation
[9] = target: the molecule itself; experiment: SEC
[10] = target: T5, Aim21^1-600-GST; experiment: pull-down
[11] = target: B5; experiment: fluorescence polarisation; remark: listed apart in the source
[12] = target: B1; experiment: fluorescence polarisation

B1
stoichiometry N [1]: 2 | stoichiometry N [2]: 2 Aim21 molecules per Tda2 homodimer | binding result [3]: binds

B2
Kd [4]: 250 nM

KLPSKVASVEKIEEDDNTNKIEIFNNWNVSSSFSKEKVLIDTTPGE (domain or fragment, S. cerevisiae, UniProt P40563 510-555, looked up) [GST-Aim21^510-555 (wild type)]
binding result [5]: binds | binding result [6]: binds | binding result [7]: binds

{FITC}-KIEIFNNWNVS [FITC-labeled Aim21 peptide spanning AA 529–539 (FITC-Aim21)]
binding result [8]: binds

B3
binding result [9]: binds

B4
binding result [9]: binds

B5
binding result [10]: binds

{FITC}-KTGPLGGTRRGRGPRGRKLPSKVASVEKIEEDDNTNKIEIFNNWNVS [FITC-labeled Aim21 peptide spanning AA 493–539, with the CPI motif and the TBR (FITC-Aim21^CPI+TBR)]
Kd [11]: 3100 nM | binding result [12]: binds
